Patent publication EP2330125A2

Assays:
calcitonin receptor [1] = experiment: CT receptor binding assay
[2] = biological target: T1, CGRP receptor (Homo sapiens (Human)), Q16602; experiment: CGRP receptor binding assay
T1 chain 1: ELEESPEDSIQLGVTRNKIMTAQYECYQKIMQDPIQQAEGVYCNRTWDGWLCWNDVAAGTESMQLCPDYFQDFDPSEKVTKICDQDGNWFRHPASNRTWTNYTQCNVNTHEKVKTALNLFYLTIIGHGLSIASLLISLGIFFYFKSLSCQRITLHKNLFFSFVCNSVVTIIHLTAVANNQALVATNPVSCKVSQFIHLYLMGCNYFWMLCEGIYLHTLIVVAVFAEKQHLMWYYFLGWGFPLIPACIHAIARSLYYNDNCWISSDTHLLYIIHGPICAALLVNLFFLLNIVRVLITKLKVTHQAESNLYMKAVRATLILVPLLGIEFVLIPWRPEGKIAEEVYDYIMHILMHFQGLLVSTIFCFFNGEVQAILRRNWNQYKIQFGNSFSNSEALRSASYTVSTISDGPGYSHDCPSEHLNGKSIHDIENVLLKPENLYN
T1 chain 2: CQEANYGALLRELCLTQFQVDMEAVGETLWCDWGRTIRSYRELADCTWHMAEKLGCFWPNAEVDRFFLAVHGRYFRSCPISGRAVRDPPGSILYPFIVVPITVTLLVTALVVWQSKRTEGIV

amylin receptor (rat) [3] = experiment: amylin receptor binding assay
calcitonin receptor [4] = experiment: calcitonin receptor binding assay
calcitonin receptor [5] = experiment: cell-based or functional assay
[6] = biological target: GLP-1/GIP/CT (receptors of the 'GLP-1/GIP/CT cyclase' assay); experiment: cell-based or functional assay
amylin receptor (rat) [7] = experiment: 125I-amylin displacement, rat nucleus accumbens membranes

Chain of calcitonin receptor (P30988 whole entry): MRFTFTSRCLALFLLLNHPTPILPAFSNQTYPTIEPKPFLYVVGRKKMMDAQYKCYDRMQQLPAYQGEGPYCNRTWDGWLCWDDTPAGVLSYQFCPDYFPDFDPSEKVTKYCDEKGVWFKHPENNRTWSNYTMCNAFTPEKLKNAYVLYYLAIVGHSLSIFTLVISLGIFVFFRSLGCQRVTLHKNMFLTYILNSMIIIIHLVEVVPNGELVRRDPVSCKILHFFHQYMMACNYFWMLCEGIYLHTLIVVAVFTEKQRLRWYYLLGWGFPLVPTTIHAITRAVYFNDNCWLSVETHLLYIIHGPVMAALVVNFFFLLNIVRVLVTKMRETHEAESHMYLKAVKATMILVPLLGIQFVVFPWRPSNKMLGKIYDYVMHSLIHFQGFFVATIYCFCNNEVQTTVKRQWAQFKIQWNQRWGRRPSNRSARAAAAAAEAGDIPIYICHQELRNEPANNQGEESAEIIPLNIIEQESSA

DFMGWMDFGKRKCNTATCATQRLANELVRLQTYPRTNVGSNTY (modifications not checked) [CCK/Amylin-sCT hybrid DF(P-CH2SO3)… …]
IC50 (calcitonin receptor [1]): 0.044 nM
IC50 [2]: 4.4 nM
IC50 (amylin receptor (rat) [3]): 0.083 nM

DFMGWMDFGKRKCNTATCATQRLANELVRLQTYPRTNVGSNTY (modifications not checked) [27(p-CH2SO3)-PheCCK8(26-33),G,K,R,15Glu,hAmy(1-17),18Arg,sCT(18-26),hAmy(32-37)]
Receptor Binding (calcitonin receptor [4]): 0.04

B1: [#Suc-(bAla)-PYY-(3-36), amide] [#NH-Des-Lys1-Rat Amylin, amide] (peptide)
chain 1: not shown
chain 2: CNTATCATQRLANFLVRSSNNLGPVLPPTNVGSNTY
modifications: not checked
CT cyclase (calcitonin receptor [5]): 645
Receptor Binding (calcitonin receptor [4]): 46

KCNTATCATQRLANFLVRSSNNLGPVLPPTNVGSNTY (modifications not checked) [Rat amylin]
GLP-1/GIP/CT cyclase [6]: 5
CT cyclase (calcitonin receptor [5]): 326
Receptor Binding (calcitonin receptor [4]): 3
Receptor Binding (amylin receptor (rat) [7]): 0.05
